Reference: PMC314469, “Protein Interaction Networks by Proteome Peptide Scanning” (PLoS Biology, 2004)

T1: Rvs167 SH3 (RV167_YEAST), P39743
T1 chain: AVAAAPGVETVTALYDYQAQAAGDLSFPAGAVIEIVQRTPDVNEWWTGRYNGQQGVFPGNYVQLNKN

T2: Yhr016c SH3 (YSC84_YEAST), P32793
T2 chain: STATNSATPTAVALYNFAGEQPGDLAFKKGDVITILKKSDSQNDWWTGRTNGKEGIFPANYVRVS

T3: Boi2 SH3 (BOI2_YEAST), P39969
T3 chain: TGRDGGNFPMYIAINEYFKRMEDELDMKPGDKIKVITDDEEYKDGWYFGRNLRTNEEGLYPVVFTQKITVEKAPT

T4: Boi1 SH3 (BOI1_YEAST), P38041
T4 chain: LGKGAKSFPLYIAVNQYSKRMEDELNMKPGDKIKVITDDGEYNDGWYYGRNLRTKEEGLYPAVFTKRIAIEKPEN

T5: Yfr024 SH3 (LSB3_YEAST), P43603
T5 chain: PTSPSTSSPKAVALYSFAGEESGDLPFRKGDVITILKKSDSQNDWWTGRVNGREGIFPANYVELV


Assays:
Test in all cases: SPOT array
[1] = target: T1, Rvs167 SH3 (RV167_YEAST), P39743
[2] = target: T2, Yhr016c SH3 (YSC84_YEAST), P32793
[3] = target: T3, Boi2 SH3 (BOI2_YEAST), P39969
[4] = target: T4, Boi1 SH3 (BOI1_YEAST), P38041
[5] = target: T5, Yfr024 SH3 (LSB3_YEAST), P43603

Binder | normalised SPOT signal, Boehringer light units (BLU); mean over the file's lines of this peptide [1] | normalised SPOT signal, Boehringer light units (BLU); mean over the file's lines of this peptide [2] | normalised SPOT signal, Boehringer light units (BLU); mean over the file's lines of this peptide [3] | normalised SPOT signal, Boehringer light units (BLU); mean over the file's lines of this peptide [4] | normalised SPOT signal, Boehringer light units (BLU); mean over the file's lines of this peptide [5]
IEQPFGPPKITKDG [YLR259C 61-74] | 28.2 | 51.4 | 26.4 | 119 | 149
IEVPQSPTKNRVKV [YIL150C 61-74] | 27.2 | 201 | 19.2 | 130 | 176
IFDPQDPYRRAQQF [YHR150W 496-509] | 52.4 | 316 | 51.8 | 53.2 | 59.9
IFFPNEPIRFVYPY [YPR072W 415-428] | 65.5 | 238 | 36 | 30.1 | 209
IFGPFGPMKEVKIL [YDR432W 144-157] | 56.3 | 260 | 23.4 | 63.3 | 195
IFGPSFPFRSHIDV [YDL224C 170-183] | 391 | 6610 | 31.8 | 138 | 9630
IFNPQNPLKTGFEP [YMR087W 156-169] | 61.8 | 122 | 57.1 | 95.5 | 170
IFPPLNPARTSLNS [YDR312W 172-185] | 134 | 829 | 31.3 | 72.9 | 5080
IHSPRIPSKDEFIA [YER091C 704-717] | 73.2 | 187 | 42 | 88.8 | 224
IIFPTSPTKLTFSN [YDR130C 112-125] | 84.2 | 0 | 13.9 | 45.5 | 314
IIFPYDPLKLGTHA [YBR163W 509-522] | 82.3 | 55.6 | 12.7 | 22.3 | 17.2
IIGPDEPEKSLILK [YMR066W 43-56] | 23.6 | 63.1 | 33.5 | 95.1 | 86
IIIPPIPSKHSLLK [YDR425W 171-184] | 22.6 | 204 | 50 | 92.9 | 3190
IIKPYLPFKISKWL [YJR054W 69-82] | 68.5 | 169 | 39.8 | 37.9 | 878
IINPDTPHRRIFNQ [YBL019W 264-277] | 157 | 530 | 71.9 | 314 | 1670
IKYPGSPQRSSSFS [YMR036C 139-152] | 22.8 | 198 | 38.1 | 105 | 391
ILKPDIPLRNMLLR [YGL224C 138-151] | 1640 | 2420 | 60 | 14700 | 12900
ILLPPLPERAYIMD [YGL144C 459-472] | 14900 | 50600 | 38.9 | 12.7 | 26200
ILSPGYPNKSFNNK [YGL073W 653-666] | 100 | 282 | 68.5 | 92.5 | 293
ILTPDFPERRRLMK [YLR233C 283-296] | 245 | 1780 | 99.2 | 8730 | 13700
ILYPDIPGKNYFLT [YOL087C 29-42] | 32.7 | 115 | 46.9 | 118 | 116
IMPPPKPFRHGLDS [YBR108W 517-530] | 1540 | 35500 | 222 | 258 | 30900
